Assay [1] concerns the target T1, Human MCP-1 (MCAF) (human, UniProt P13500 24-99).
T1 construct: bought recombinant chemokine
The experiment in a line: Bound chemokines (at least); screen vs control proteins.

Assay [2] addresses T1, Human MCP-1 (MCAF). Described as above. The source holds these as a separate data set.
The target in assay [3] is T2, human Eotaxin (human, UniProt P51671 24-97).
T2 construct: bought recombinant chemokine
The experiment in a line: peptide-containing carriers, binding vs control proteins (FIG. 1).

Assay [4] addresses T3, Human SDF-1α (human, UniProt P48061-2 22-89).
T3 construct: bought recombinant chemokine; also called SDF-1 alpha
Briefly: ELISA on chemokine-coated plates, fold over control proteins (FIG. 3). The method, then:
(§1) NUNC-Immuno maxisorp plates (Cat. No. 4-42404) were coated with the appropriate chemokine (0.1 ml/well, 0.1-1.0 μg/ml in 0.1 M NaHCO₃, pH 8.6), overnight at 4° C. The plates were then blocked with 0.2 ml/well of blocking buffer (5 mg/ml BSA in 0.1 NaHCO₃). Control wells were treated with blocking buffer alone, with no addition of target protein (chemokine). The plates were washed 6 times with PBST (0.1% Tween 20 in PBS), followed by incubation for 45 minutes at room temperature with 10-fold serial dilutions of individual synthetic peptides (10 pg-10 μg) with 1% BSA (PBST-BSA)/well. After the plates were washed 6 times with PBST, the bound peptides were probed by HRP-SA Conjugate, diluted 1:10,000 to 1:20,000 in PBST-BSA, 0.1 ml/well for 45 minutes at room temperature. The target-bound synthetic peptides probed with HRP-SA were quantified by DAKO TMB one-step substrate system, followed by the addition of stop solution, HCl—H₂SO₄ mixture (0.1 ml/well) ON HCl, 3N H₂SO₄). The results were analyzed by ELISA reader at OD₄₅₀.
(§2) As discussed above, the level of binding was calculated by comparing binding of the peptides to the chemokines with peptide binding to controls. Level of control binding was defined as level 1 (up to a one-fold increase in binding). This control binding level is illustrated in the Figure as a dashed line.
On the technique in general: In an ELISA, binding on a coated surface is turned into a signal by an enzyme label.

For assay [5], the target named is T2, human Eotaxin. The description is as above. How it is done: as §1, §2
Assay [6] has as its target T4, human MIG (human, UniProt Q07325 23-125).
T4 construct: bought recombinant chemokine
T4 sequence (looked up): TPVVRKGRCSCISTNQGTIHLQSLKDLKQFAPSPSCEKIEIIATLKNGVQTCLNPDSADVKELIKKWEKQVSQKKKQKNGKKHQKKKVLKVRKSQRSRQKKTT
The assay is described as above. The method, then: as §1, §2

Assay [7] addresses T5, human IL-8, (72 amino acids) (human, UniProt P10145 28-99).
T5 sequence (looked up): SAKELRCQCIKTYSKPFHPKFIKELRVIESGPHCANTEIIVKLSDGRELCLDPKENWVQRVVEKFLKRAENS
The description is as above. The method, then:
as §1, §2

Assay [8] addresses T1, Human MCP-1 (MCAF). Described as above. The method, then: as §1, §2
Assay [9] addresses T2, human Eotaxin. The experiment in a line: cell-based or functional assay.
Assay [10] deals with T5, human IL-8, (72 amino acids). Briefly: Bound chemokines (at least); screen vs control proteins.
Assay [11] deals with T2, human Eotaxin. Described as above.
The target of assay [12] is T4, human MIG. Briefly: cell-based or functional assay.
In assay [13] the target is T5, human IL-8, (72 amino acids). Briefly: Bound chemokines (at least); screen vs control proteins. The source holds these as a separate data set.
The target is the same in assay [14]. The experiment in a line: cell-based or functional assay.
For assay [15], the target named is T4, human MIG. The experiment in a line: Bound chemokines (at least); screen vs control proteins.
The target in assay [16] is T3, Human SDF-1α. The description is as above.

Bridges are numbered along the chain shown (N, C = ends). Where no end group is shown, it is not given here. The star is where a group is joined. Biotin = O=C1N[C@H]2[C@H](CS[C@H]2CCCCC(=O)*)N1

T1 sequence (P13500 24-99 limits assumed): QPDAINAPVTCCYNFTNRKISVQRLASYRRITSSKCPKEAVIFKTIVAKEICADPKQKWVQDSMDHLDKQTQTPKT
T2 sequence (P51671 24-97 limits assumed): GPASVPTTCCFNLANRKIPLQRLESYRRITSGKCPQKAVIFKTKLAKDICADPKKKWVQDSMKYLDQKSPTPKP
T3 sequence (P48061 22-89 limits assumed): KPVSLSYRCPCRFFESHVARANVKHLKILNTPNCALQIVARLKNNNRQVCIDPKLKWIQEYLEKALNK

For the molecule GDFNSGHHTTTR [BKT-P27], the binding result in [1] was “binds”.
On to YATQHNWRLKHE [BKT-P53], for which the binding result in [2] is given as “binds”.
For the molecule HHTWDTRIWQAF [BKT-P55], the binding result in [1] is given as “binds”.
Consider AHSLKSITNHGL [BKT-P44], for which the binding result in assay [2] was “binds”.
Turning to LDYPIPQTVLHH [BKT-P46], the binding result in assay [1] is given as “binds”.

B1: BKT-P22/38 (peptide)
peptide: LGFDPTSTRFYT
notes: the carrier is not described; also called BKT-P38
For B1, in assay [3], the binding result is “binds”.

B2: BKT-P18 (peptide)
peptide: ACKESATYFCGGGSK(Biotin)G
modifications: disulfide 2-10 (inferred)
notes: general synthetic cyclic format applied; also called control peptide
For B2, the binding result in assay [4], in assay [5], in assay [6], in assay [7] and in [8] was “no binding” in each case.
In the case of SAGHIHEAHRPLGGGSK(Biotin)G [BKT-P39], the “Level of Antagonistic Effect (T cell arrest under laminar flow on VCAM-1 plus chemokine)” value (“Level of Antagonistic Effect” below) in [9] worked out at 100%.
As to HSACHASLKHRC (not fully specified (bridges); cysteine pairing not given here) [BKT-P49], the binding result in assay [2] is “binds”.
As to SAISDHRAHRSH [BKT-P40], the binding result in assay [10] is “binds”.
As for WSAHIVPYSHKP [BKT-P52], the binding result in assay [2] is recorded as “binds”.
As to ESDLTHALHWLG [BKT-P51], the binding result in assay [2] is given as “binds”.
The same measure, in the same setting: the same measure for VHTSLLQKHPLP [BKT-P26]: “binds”.
For the molecule SVQTRPLFHSHF [BKT-P34], in assay [11], the binding result is “binds”.
Regarding ACHASLKHRC (not fully specified (bridges); cysteine pairing not given here) [BKT-P48], the binding result in assay [2] is on record as “binds”.
As for SIPSHSIHSAKAGGGSK(Biotin)G [BKT-P2], the “Level of Antagonistic Effect” value in assay [12] came to 50%.
As to LLADTTHHRPWP (the carrier is not described) [BKT-P37], the binding result in assay [13] is on record as “binds”.
On to GVHKHFYSRWLG [BKT-P33], for which the binding result in assay [11] is on record as “binds”.
In the case of HHFHLPKLRPPVGGGSK(Biotin)G [BKT-P45], the “Level of Antagonistic Effect” value came to 20% in [12] and 100% in assay [14].
On to TRLVPSRYYHHP [BKT-P47], for which the binding result in [1] is reported as “binds”.
With CAHLSPHKC (not fully specified (bridges); cysteine pairing not given here) [BKT-P50], in [15], the binding result was “binds”.
Regarding CHHNLSWEC (not fully specified (bridges); cysteine pairing not given here) [BKT-P56], the binding result in assay [16] is recorded as “binds”.
